66 substances from the array DNA melting data of Ke et al. can be followed below.

As usually defined, the Tm is the temperature at which the thermal transition is half complete.

The nature of this data set: melting temperature; melt of duplexes. As to conditions: sodium 0.0675 M; strand 1 µM.
As to “CGACGTGCCGAATGTGCTG+CAGCACATTCAGCACGTCG ((((((((.((((((((((+)))))))))).))))))))”, the Tm amounted to 57 °C.

On to “CGACGTGCCCCATGTGCTG+CAGCACATGTCGCACGTCG ((((((((..(((((((((+)))))))))..))))))))”, for which the Tm amounted to 51.2 °C.

Regarding “CGACGTGCTTGATGTGCTG+CAGCACATCAAGCACGTCG (((((((((((((((((((+)))))))))))))))))))”, the Tm came out at 64.9 °C.

With “CGACGTGCCGAATGTGCTG+CAGCACATCACGCACGTCG ((((((((...((((((((+))))))))...))))))))”, the Tm was 48.9 °C.

Take “CGACGTGCAGAATGTGCTG+CAGCACATATCGCACGTCG ((((((((...((((((((+))))))))...))))))))”: the Tm is 50.9 °C.

For the substance “CGACGTGCCCAATGTGCTG+CAGCACATCGAGCACGTCG ((((((((.(.((((((((+)))))))).).))))))))”, the midpoint of thermal melting (Tm) came to 50.3 °C.

As to “CGACGTGCAGGATGTGCTG+CAGCACATTAAGCACGTCG ((((((((...((((((((+))))))))...))))))))”, the midpoint of thermal melting (Tm) was 50.7 °C.

Take “CGACGTGCGAAATGTGCTG+CAGCACATATCGCACGTCG ((((((((((.((((((((+)))))))).))))))))))”: the Tm amounted to 57.4 °C.

On to “CGACGTGCAAAATGTGCTG+CAGCACATACAGCACGTCG ((((((((...((((((((+))))))))...))))))))”, for which the Tm is 49.7 °C.

Turning to “CGACGTGCACTATGTGCTG+CAGCACATTATGCACGTCG (((((((((..((((((((+))))))))..)))))))))”, the Tm is 46.2 °C.

As to “CGACGTGCCCTATGTGCTG+CAGCACATCACGCACGTCG ((((((((...((((((((+))))))))...))))))))”, the Tm amounted to 46.4 °C.

Turning to “CGACGTGCCAGATGTGCTG+CAGCACATGGCGCACGTCG ((((((((...((((((((+))))))))...))))))))”, the Tm was found to be 50.4 °C.

Take “CGACGTGCGCTATGTGCTG+CAGCACATACCGCACGTCG (((((((((.(((((((((+))))))))).)))))))))”: the melting temperature (Tm) amounted to 54.8 °C.

Turning to “CGACGTGCTAAATGTGCTG+CAGCACATCTTGCACGTCG ((((((((.(.((((((((+)))))))).).))))))))”, the midpoint of thermal melting (Tm) is 50.1 °C.

Regarding “CGACGTGCGCCATGTGCTG+CAGCACATTAGGCACGTCG ((((((((...((((((((+))))))))...))))))))”, the melting temperature (Tm) turned out to be 48.3 °C.

Regarding “CGACGTGCTGTATGTGCTG+CAGCACATAATGCACGTCG ((((((((..(((((((((+)))))))))..))))))))”, the Tm stood at 51.5 °C.

With “CGACGTGCTTTATGTGCTG+CAGCACATTGAGCACGTCG (((((((((..((((((((+))))))))..)))))))))”, the Tm was 52 °C.

In the case of “CGACGTGCCGTATGTGCTG+CAGCACATGAGGCACGTCG (((((((((..((((((((+))))))))..)))))))))”, the Tm turned out to be 58.7 °C.

“CGACGTGCGAAATGTGCTG+CAGCACATGGTGCACGTCG ((((((((...((((((((+))))))))...))))))))”: the Tm came to 50.6 °C.

On to “CGACGTGCTCTATGTGCTG+CAGCACATGATGCACGTCG ((((((((...((((((((+))))))))...))))))))”, for which the melting temperature (Tm) worked out at 51.1 °C.

As to “CGACGTGCTATATGTGCTG+CAGCACATAAAGCACGTCG (((((((((.(((((((((+))))))))).)))))))))”, the melting temperature (Tm) came out at 55.6 °C.

In the case of “CGACGTGCGAAATGTGCTG+CAGCACATCCTGCACGTCG ((((((((...((((((((+))))))))...))))))))”, the Tm was 49.5 °C.

As to “CGACGTGCTGGATGTGCTG+CAGCACATCCTGCACGTCG ((((((((.((((((((((+)))))))))).))))))))”, the Tm worked out at 61.2 °C.

For the substance “CGACGTGCCTCATGTGCTG+CAGCACATGCGGCACGTCG (((((((((.(((((((((+))))))))).)))))))))”, the Tm is 58.3 °C.

For “CGACGTGCCGGATGTGCTG+CAGCACATGACGCACGTCG ((((((((...((((((((+))))))))...))))))))”, the Tm was 46.3 °C.

For the substance “CGACGTGCGTTATGTGCTG+CAGCACATGGCGCACGTCG (((((((((..((((((((+))))))))..)))))))))”, the Tm worked out at 57.5 °C.

Take “CGACGTGCGTGATGTGCTG+CAGCACATCAAGCACGTCG ((((((((.((((((((((+)))))))))).))))))))”: the midpoint of thermal melting (Tm) amounted to 58.6 °C.

Take “CGACGTGCCCTATGTGCTG+CAGCACATGCAGCACGTCG ((((((((...((((((((+))))))))...))))))))”: the melting temperature (Tm) turned out to be 49.7 °C.

On to “CGACGTGCGTGATGTGCTG+CAGCACATAGGGCACGTCG ((((((((...((((((((+))))))))...))))))))”, for which the Tm came out at 50.6 °C.

With “CGACGTGCATTATGTGCTG+CAGCACATATGGCACGTCG ((((((((..(((((((((+)))))))))..))))))))”, the Tm amounted to 51.8 °C.

Consider “CGACGTGCGTGATGTGCTG+CAGCACATGTCGCACGTCG (((((((((..((((((((+))))))))..)))))))))”, for which the Tm stood at 55.2 °C.

With “CGACGTGCGTTATGTGCTG+CAGCACATCACGCACGTCG ((((((((((.((((((((+)))))))).))))))))))”, the melting temperature (Tm) is 56.8 °C.

Regarding “CGACGTGCAGAATGTGCTG+CAGCACATTTGGCACGTCG ((((((((..(((((((((+)))))))))..))))))))”, the Tm came out at 54.3 °C.

On to “CGACGTGCGCTATGTGCTG+CAGCACATGTAGCACGTCG ((((((((...((((((((+))))))))...))))))))”, for which the melting temperature (Tm) amounted to 52.5 °C.

Turning to “CGACGTGCTAAATGTGCTG+CAGCACATACTGCACGTCG ((((((((...((((((((+))))))))...))))))))”, the Tm is 49.7 °C.

Consider “CGACGTGCACTATGTGCTG+CAGCACATAGGGCACGTCG ((((((((.((((((((((+)))))))))).))))))))”, for which the midpoint of thermal melting (Tm) was 58.9 °C.

As for “CGACGTGCTGAATGTGCTG+CAGCACATGGTGCACGTCG ((((((((...((((((((+))))))))...))))))))”, the midpoint of thermal melting (Tm) came out at 50.9 °C.

On to “CGACGTGCATTATGTGCTG+CAGCACATCATGCACGTCG ((((((((((.((((((((+)))))))).))))))))))”, for which the Tm was determined as 54.1 °C.

“CGACGTGCAAAATGTGCTG+CAGCACATTAAGCACGTCG ((((((((..(((((((((+)))))))))..))))))))”: the Tm turned out to be 52.4 °C.

Turning to “CGACGTGCGATATGTGCTG+CAGCACATGAGGCACGTCG ((((((((...((((((((+))))))))...))))))))”, the Tm came out at 53.1 °C.

With “CGACGTGCTTAATGTGCTG+CAGCACATATCGCACGTCG ((((((((...((((((((+))))))))...))))))))”, the Tm was found to be 48 °C.

With “CGACGTGCCGCATGTGCTG+CAGCACATTCTGCACGTCG ((((((((.(.((((((((+)))))))).).))))))))”, the melting temperature (Tm) is 48.8 °C.

Regarding “CGACGTGCTACATGTGCTG+CAGCACATCTGGCACGTCG ((((((((.(.((((((((+)))))))).).))))))))”, the Tm came out at 49.9 °C.

Consider “CGACGTGCTCTATGTGCTG+CAGCACATCTCGCACGTCG ((((((((...((((((((+))))))))...))))))))”, for which the Tm was found to be 47.1 °C.

For the substance “CGACGTGCACGATGTGCTG+CAGCACATTGCGCACGTCG ((((((((.(.((((((((+)))))))).).))))))))”, the Tm worked out at 52.1 °C.

Take “CGACGTGCGTTATGTGCTG+CAGCACATTAGGCACGTCG ((((((((.(.((((((((+)))))))).).))))))))”: the Tm is 52.2 °C.

As for “CGACGTGCTGTATGTGCTG+CAGCACATGAAGCACGTCG (((((((((..((((((((+))))))))..)))))))))”, the Tm is 54.9 °C.

On to “CGACGTGCATGATGTGCTG+CAGCACATCATGCACGTCG (((((((((((((((((((+)))))))))))))))))))”, for which the Tm is 63.6 °C.

Turning to “CGACGTGCTTGATGTGCTG+CAGCACATGCTGCACGTCG ((((((((...((((((((+))))))))...))))))))”, the Tm came to 48.1 °C.

As for “CGACGTGCTATATGTGCTG+CAGCACATAGTGCACGTCG ((((((((..(((((((((+)))))))))..))))))))”, the melting temperature (Tm) amounted to 49 °C.

As for “CGACGTGCCGTATGTGCTG+CAGCACATCTGGCACGTCG (((((((((..((((((((+))))))))..)))))))))”, the midpoint of thermal melting (Tm) worked out at 55.3 °C.

In the case of “CGACGTGCTATATGTGCTG+CAGCACATCCAGCACGTCG (((((((((..((((((((+))))))))..)))))))))”, the melting temperature (Tm) amounted to 50.2 °C.

Take “CGACGTGCTTTATGTGCTG+CAGCACATTTGGCACGTCG ((((((((...((((((((+))))))))...))))))))”: the midpoint of thermal melting (Tm) turned out to be 50.1 °C.

Turning to “CGACGTGCTGAATGTGCTG+CAGCACATGATGCACGTCG ((((((((...((((((((+))))))))...))))))))”, the melting temperature (Tm) was 55.2 °C.

Take “CGACGTGCCGTATGTGCTG+CAGCACATCAAGCACGTCG ((((((((...((((((((+))))))))...))))))))”: the Tm is 49.3 °C.

For the substance “CGACGTGCGCAATGTGCTG+CAGCACATCCAGCACGTCG ((((((((...((((((((+))))))))...))))))))”, the Tm worked out at 51.1 °C.

In the case of “CGACGTGCTGAATGTGCTG+CAGCACATTGGGCACGTCG ((((((((..(((((((((+)))))))))..))))))))”, the Tm was determined as 53.8 °C.

“CGACGTGCCTAATGTGCTG+CAGCACATATCGCACGTCG ((((((((...((((((((+))))))))...))))))))”: the Tm is 47 °C.

In the case of “CGACGTGCTAGATGTGCTG+CAGCACATCAGGCACGTCG ((((((((..(((((((((+)))))))))..))))))))”, the Tm turned out to be 56.2 °C.

As for “CGACGTGCGGTATGTGCTG+CAGCACATTTAGCACGTCG ((((((((...((((((((+))))))))...))))))))”, the Tm worked out at 54.5 °C.

For “CGACGTGCAGCATGTGCTG+CAGCACATCGTGCACGTCG (((((((((..((((((((+))))))))..)))))))))”, the melting temperature (Tm) was found to be 44.1 °C.

Take “CGACGTGCATTATGTGCTG+CAGCACATGTAGCACGTCG ((((((((...((((((((+))))))))...))))))))”: the Tm came to 49.4 °C.

On to “CGACGTGCCGCATGTGCTG+CAGCACATAAAGCACGTCG ((((((((...((((((((+))))))))...))))))))”, for which the midpoint of thermal melting (Tm) amounted to 50.1 °C.

For “CGACGTGCCCGATGTGCTG+CAGCACATTCGGCACGTCG (((((((((..((((((((+))))))))..)))))))))”, the midpoint of thermal melting (Tm) is 54.9 °C.

On to “CGACGTGCAATATGTGCTG+CAGCACATAAAGCACGTCG ((((((((..(((((((((+)))))))))..))))))))”, for which the Tm stood at 52 °C.

Regarding “CGACGTGCCTAATGTGCTG+CAGCACATGAAGCACGTCG ((((((((.(.((((((((+)))))))).).))))))))”, the Tm is 51 °C.
